# Entries after “also recorded” stand apart in the source; their conditions may differ.
# Tests used:
# bovine trypsin [1] = molecular target: T1, bovine trypsin (Bos taurus, UniProt P00760); experiment: Trypsin assay (spectrophotometric, N-Benzoyl-L-arginine p-nitroanilide substrate); format: biochemical; conditions: inhibitor/protease ratio between about 10/1 and 50/1
# T1 sequence (P00760 24-246): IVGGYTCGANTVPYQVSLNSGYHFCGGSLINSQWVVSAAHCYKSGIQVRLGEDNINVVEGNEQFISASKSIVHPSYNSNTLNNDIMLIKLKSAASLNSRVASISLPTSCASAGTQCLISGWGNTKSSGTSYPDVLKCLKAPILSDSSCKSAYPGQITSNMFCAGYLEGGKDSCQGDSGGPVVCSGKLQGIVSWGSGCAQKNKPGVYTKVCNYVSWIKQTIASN
# Method: (§1) The inhibitory activity of the polypeptides of the present invention can be easily assayed using in vitro assays. In these types of spectrophotometric assays the activity of the serine protease is measured toward an appropriate p-nitroanilide substrate in the presence and absence of the peptide inhibitor. The enzyme catalyzed hydrolysis of the peptide p-nitroanilide substrate produces p-nitroanaline which results in an increase in absorbance which is monitored in the range of 405 to 410 nm. The rate of increase in absorbance is a measure of the enzymatic activity and the decrease in this rate relative to a suitable control is used to ascertain inhibition. The general assay procedure and details of the particular assays employed in the examples are provided in the Appendix following the examples. It is also possible to test the polypeptides in a functionally oriented assay that emulates in vivo conditions. Such an inhibition assay for elastase is also described in the Appendix.
# (§2) Generalized Protocol Spectrophotometric Assays:
# (§3) (1) Pipette 100 μl of enzyme solution into a disposable polystyrene cuvette (1 cm optical path length).
# (§4) (2) Add (1900-X) μl of bufferto the cuvette, where X is the volume of test solution in microliters that is added in the next step.
# (§5) Add X μl of test solution to the cuvette, where X ranges from 0 μl for the control to a maximum of about 500 μl. Incubate the solution for a period of 1 to 5 minutes at ambient temperature.
# (§6) (4) Add 100 μl of substrate solution to the cuvette. Mix the contents by covering the cuvette with a piece of paraffin film and repeatedly inverting for a period of 5 to 15 seconds.
# (§7) (5) Record the change in absorbance for about 5 minutes at either 405 or 410 nm, depending on the assay, with a spectrophotometer equipped with a suitable recording device.
# (§8) The percent inhibition is calculated from the formula [formula] where (ΔA/min) is the initial rate of absorbance change.
# (§9) (7) For more accurate quantitative determinations temperature control of the cuvette holders and the reagent solutions can be instituted.
# (§10) (8) The test solution can be crude oxidized peptide prepared as described above, fractions from a chromatographic separation or purified polypeptides.
# (A) Buffer Solution - Triethanolamine buffer consisting of 200 mM triethanolamine, 20 mM CaCl2, pH 7.8
# (B) Substrate solution - Dissolve 50 mg of N-Benzoyl-L-arginine p-nitroanilide in 50 ml of water. Sonicate for 5 to 10 minutes to completely dissolve the solid material.
# (C) Enzyme solution - Dissolve 1 mg of bovine trypsin in 10 ml of 0.001N HCl stored on ice during the assay.
# (§11) (D) Test Solution - See general protocol, number 8.
# (§12) Procedure: Use the above solutions in the general protocol described above.
# bovine chymotrypsin [2] = molecular target: T2, bovine chymotrypsin (Bos taurus, UniProt P00766); experiment: Chymotrypsin assay (spectrophotometric, p-nitroanilide substrate); format: biochemical; conditions: inhibitor/protease ratio between about 10/1 and 50/1
# Method: as §1, §2, §3, §4, §5, §6, §7, §8, §9, §10
# (A) Buffer solution - triethanolamine buffer- See trypsin assay.
# (B) Substrate Solution - Dissolve 25 mg of 3-carbomethoxypropionyl-L-arginyl-L-prolyl-L-tyrosine p-nitroanilide (Product No. S-2586, KabiVitrum AB, Stockholm, Sweden) in 23.6 ml of water
# (C) Enzyme solution - Dissolve 1 mg of bovine chymotrypsin in 4 ml of 0.001N HCl. Prepare the final dilution by combining 0.1 ml of the stock chymotrypsin solution and 10 ml of 0.001N HCl. Store on ice or at 4° C.
# Procedure: Use the above solutions in the general protocol
# (2) See note 1 of the cathepsin G assay.
# (3) 0.1M Tris-HCl, pH 7.8, 20 mM CaCl2, 0.05% triton X-100 can be substituted for the triethanolamine buffer.
# Human Sputum Elastase = molecular target: T3, Human Sputum Elastase (Homo sapiens, UniProt P08246); experiment: Elastase assay (spectrophotometric, p-nitroanilide substrate); format: biochemical; conditions: for Inhibitory Activity Elastase: inhibitor/protease ratio between about 10/1 and 50/1; for inhibition of human elastase (in words): text discussion of Table III
# T3 construct: Human Sputum Elastase, product No. SE-563 EPC, Inc., Pacific, Mo; USA, Lot 85701; purchased EPC, Inc., Pacific, Mo; USA SE-563; host or cells: human sputum
# T3 sequence (P08246 30-267): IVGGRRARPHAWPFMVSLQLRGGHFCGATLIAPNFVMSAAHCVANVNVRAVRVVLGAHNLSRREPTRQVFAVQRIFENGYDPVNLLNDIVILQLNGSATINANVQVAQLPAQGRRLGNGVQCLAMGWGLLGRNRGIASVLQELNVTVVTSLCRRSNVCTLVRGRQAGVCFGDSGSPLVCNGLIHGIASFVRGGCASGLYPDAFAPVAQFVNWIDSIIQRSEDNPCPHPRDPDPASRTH
# Method: as §1, §2, §3, §4, §5, §6, §7, §8, §9, §10
# (A) Buffer Solution - Tris-NaCl buffer consisting of 0.1M Tris-HCl pH 7.5 at 25° C. containing 0.5M NaCl and 0.01% (w/v) NaNs.
# (B) Substrate Solution - Dissolve 45.5 mg of N-succinyl-L-alanyl-L-alanyl-L-alanine p-nitroanilide in 1 ml of 1-methyl-2-pyrrolidinone. Add 32 ml of Tris-NaCl buffer.
# (C) Enzyme Solution - Human Sputum Elastase, product No. SE-563 EPC, Inc., Pacific, Mo. USA, Lot 85701. Dissolve 1 mg in 1 ml of Tris-NaCl buffer. Store on ice or at 4° C.
# as §11, §12
# (1) Buffer Solution - Tris-NaCl buffer -see Method 1.
# (2) Substrate Solution - Dissolve 50 mg of 3-carbomethoxypropionyl-L-alanyl-L-alanyl-L-[…]-L-valine p-nitroanilidein 1 ml of 1-methyl-2-pyrrolidinone. Add 32 ml of Tris-NaCl buffer.
# (3) Enzyme Solution - Human sputum elastase, product No. SE-563, EPC, inc. Pacific, Mo. USA, Lot 85071. Prepare a sample at a concentration of 0.01 mg per ml of Tris-NaCl buffer. Store on ice.
# (4) Test Solution - general protocol, number 8.
# Procedure: Use the above solutions in the general protocol.
# (1) Porcine pancreatic elastase may be substituted for human elastase when it is desired to test for an inhibitor of the former.
# (2) The activity of an elastase preparation can be calculated as [formula]
# (3) The Tris-NaCl buffer also can be pH 8.0 with 0.03% sodium azide. Results should be compared at a single pH.
# Human Sputum Cathepsin G [3] = molecular target: T4, Human Sputum Cathepsin G (Homo sapiens, UniProt P08311); experiment: Cathepsin G assay (spectrophotometric, p-nitroanilide substrate); format: biochemical; conditions: inhibitor/protease ratio between about 10/1 and 50/1
# T4 construct: Human Sputum Cathepsin G (Product No. SG-45, EPC, Inc., Pacific, Mo.); purchased EPC, Inc., Pacific, Mo; SG-45; host or cells: human sputum
# T4 sequence (P08311 21-255): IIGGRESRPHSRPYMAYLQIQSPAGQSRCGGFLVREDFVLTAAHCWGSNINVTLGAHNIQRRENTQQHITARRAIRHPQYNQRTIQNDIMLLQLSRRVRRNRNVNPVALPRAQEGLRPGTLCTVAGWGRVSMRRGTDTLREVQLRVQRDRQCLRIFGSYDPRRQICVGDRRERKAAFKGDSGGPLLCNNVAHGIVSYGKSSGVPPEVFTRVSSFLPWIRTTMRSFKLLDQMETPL
# Method: as §1, §2, §3, §4, §5, §6, §7, §8, §9, §10
# (A) Buffer Solution - Tris-NaCl buffer consisting of 0.1M Tris-HCl, pH 8.0 containing 0.5M NaCl and 0.03% sodium azide.
# (B) Substrate solution - Dissolve 50 mg of N-succinyl-L-alanyl-L-alanyl-L-prolyl-L-phenylalanine p-nitroanilide in 1 ml of 1-methyl-2-pyrrolidinone and dilute to 50 ml with Tris-NaCl buffer.
# (C) Enzyme Solution - Human Sputum Cathepsin G (Product No. SG-45, EPC, Inc., Pacific, Mo.). Dissolve 1 mg of protein per 1 ml of Tris-NaCl buffer. Store on ice or at 4° C.
# (D) Test Solutions - See the general protocol, number 8.
# Procedure: Use the above solution in the general protocol described above. […]
# Human Sputum Cathepsin G [4] = molecular target: T4, Human Sputum Cathepsin G; conditions: stated for comparison, no test described; cited from earlier work
# bovine trypsin [5] = molecular target: T1, bovine trypsin; conditions: stated for comparison, no test described; cited from earlier work
# bovine chymotrypsin [6] = molecular target: T2, bovine chymotrypsin; conditions: stated for comparison, no test described; cited from earlier work
Substance,Inhibitory Activity Trypsin (bovine trypsin [1]),Inhibitory Activity Chymotrypsin (bovine chymotrypsin [2]),Inhibitory Activity Elastase (Human Sputum Elastase),inhibition of human elastase (in words) (Human Sputum Elastase),Inhibitory Activity Cathepsin G (Human Sputum Cathepsin G [3]),inhibition of cathepsin G (in words) (Human Sputum Cathepsin G [4]),inhibition of trypsin (in words) (bovine trypsin [5]),inhibition of chymotrypsin (in words) (bovine chymotrypsin [6])
RVCPVALMKCKKDSDCLAECVCLEHGYCG (RVCPVALMKCKKDSDCLAECVCLEHGYCG) [Peptide 48],- (Represents less than 10% inhibition),- (Represents less than 10% inhibition),+ (Represents between 10% and 50% inhibition),continue to be inhibitors of human elastase,- (Represents less than 10% inhibition),–,–,–
RVCPVILLKCKKDSDCLAECVCLEHGYCG (RVCPVILLKCKKDSDCLAECVCLEHGYCG) [Peptide 45],- (Represents less than 10% inhibition),- (Represents less than 10% inhibition),++ (Represents greater than 50% inhibition),continue to be inhibitors of human elastase,- (Represents less than 10% inhibition),–,–,–
R V C P V I L Nle KCKKDSDCLAECVCLEHGYCG [Peptide 43],- (Represents less than 10% inhibition),- (Represents less than 10% inhibition),++ (Represents greater than 50% inhibition),–,- (Represents less than 10% inhibition),–,–,–
RVCPVSLMKCKKDSDCLAECVCLEHGYCG (RVCPVSLMKCKKDSDCLAECVCLEHGYCG) [Peptide 44],- (Represents less than 10% inhibition),- (Represents less than 10% inhibition),++ (Represents greater than 50% inhibition),–,- (Represents less than 10% inhibition),–,–,–
RVPCVALMKCKKDSDCLAECVCLEHGYCG (RVPCVALMKCKKDSDCLAECVCLEHGYCG) [Peptide 49],- (Represents less than 10% inhibition),- (Represents less than 10% inhibition),+ (Represents between 10% and 50% inhibition),continue to be inhibitors of human elastase; also recorded: only marginal activity,- (Represents less than 10% inhibition),–,–,–
RVPCVILMKLKKDSDCLAECVCLEHGYCG (RVPCVILMKLKKDSDCLAECVCLEHGYCG) [Peptide 50],- (Represents less than 10% inhibition),- (Represents less than 10% inhibition),- (Represents less than 10% inhibition),only marginal activity,- (Represents less than 10% inhibition),–,–,–
α-1-Proteinase inhibitor,–,–,–,–,–,inhibits all of these enzymes,inhibits all of these enzymes,inhibits all of these enzymes
